Source: the Human Domainome abundance scans (Beltran et al. 2025)
± gives the uncertainty stated by the source.

B1: Tumor protein 63, residues 545 to 610; numbered along this chain, Q9H3D4 (parent)
chain: TDCSIVSFLARLGCSSCLDYFTTQGLTTIYQIEHYSMDDLASLKIPEQFRHAIWKGILDHRQLHEF

Variants of: B1
Assay: abundance fitness (aPCA) (normalised: wild type 0, dead -1); higher = more abundant; growth selection in yeast, the domain comes from the species named
Conditions: Homo sapiens

Abundance fitness, by site and new letter:
Q48: S -0.038 ± 0.025 | W -0.203 ± 0.037 | K -0.015 ± 0.036 | M -0.028 ± 0.034 | R -0.013 ± 0.021 | V -0.027 ± 0.022 | T -0.023 ± 0.034 | Y -0.078 ± 0.043 | A -0.024 ± 0.023 | P -0.006 ± 0.044 | G -0.025 ± 0.02 | D -0.04 ± 0.038 | N -0.006 ± 0.05 | I -0.052 ± 0.056 | C -0.064 ± 0.03 | H -0.005 ± 0.057 | L -0.063 ± 0.027 | E 0.035 ± 0.033
K44: L -0.076 ± 0.023 | F -0.081 ± 0.031 | H -0.075 ± 0.046 | W -0.154 ± 0.024 | E 0.002 ± 0.046 | D -0.011 ± 0.038 | S -0.015 ± 0.022 | C -0.052 ± 0.026 | T -0.061 ± 0.025 | R -0.014 ± 0.02 | N -0.021 ± 0.045 | M -0.039 ± 0.033 | V -0.23 ± 0.026 | Q -0.014 ± 0.033 | Y -0.083 ± 0.037 | G 0.013 ± 0.022 | I -0.4 ± 0.045 | A -0.037 ± 0.025
F49: T -0.127 ± 0.026 | S -0.026 ± 0.026 | I -0.168 ± 0.035 | K -0.027 ± 0.047 | L -0.059 ± 0.025 | V -0.113 ± 0.021 | D -0.021 ± 0.035 | P -0.061 ± 0.033 | N -0.058 ± 0.037 | M -0.014 ± 0.05 | W -0.052 ± 0.036 | H -0.004 ± 0.042 | C -0.047 ± 0.031 | G -0.174 ± 0.027 | Q -0.023 ± 0.028 | E -0.007 ± 0.036
D59: W -0.161 ± 0.027 | Q -0.027 ± 0.045 | V -0.034 ± 0.022 | L -0.074 ± 0.023 | G -0.02 ± 0.022 | Y -0.054 ± 0.042 | F -0.09 ± 0.031 | R -0.087 ± 0.024 | E -0.006 ± 0.027 | N -0.079 ± 0.04 | C -0.058 ± 0.037 | K -0.06 ± 0.052 | A -0.009 ± 0.022 | I -0.084 ± 0.034 | T -0.111 ± 0.04 | H -0.024 ± 0.055 | M -0.066 ± 0.034
G56: K -0.447 ± 0.075 | M -0.546 ± 0.046 | H -0.363 ± 0.061 | Y -0.505 ± 0.036 | T -0.541 ± 0.042 | L -0.77 ± 0.051 | R -0.452 ± 0.02 | D -0.446 ± 0.038 | I -0.831 ± 0.12 | A -0.075 ± 0.03 | N -0.361 ± 0.035 | W -0.811 ± 0.063 | F -0.649 ± 0.061 | S -0.142 ± 0.022 | E -0.239 ± 0.04 | C -0.472 ± 0.047 | V -0.676 ± 0.041 | Q -0.307 ± 0.043
K55: R -0.059 ± 0.02 | D -0.072 ± 0.034 | E -0.018 ± 0.046 | P -0.792 ± 0.088 | Q -0.038 ± 0.071 | L -0.06 ± 0.025 | M -0.048 ± 0.035 | C -0.041 ± 0.035 | S -0.057 ± 0.026 | A -0.074 ± 0.027 | G -0.057 ± 0.022 | V -0.071 ± 0.032 | F -0.212 ± 0.049 | W -0.192 ± 0.032 | N -0.038 ± 0.029 | H -0.106 ± 0.082 | T -0.087 ± 0.045
S42: W -0.097 ± 0.036 | E 0.008 ± 0.026 | K 0 ± 0.043 | A -0.019 ± 0.029 | D 0.008 ± 0.041 | I 0.004 ± 0.034 | Y -0.069 ± 0.045 | P -0.176 ± 0.028 | C -0.061 ± 0.035 | T -0.01 ± 0.026 | V -0.011 ± 0.023 | H -0.011 ± 0.021 | N 0.013 ± 0.025 | G 0.051 ± 0.03 | Q -0.001 ± 0.038 | L -0.01 ± 0.021 | M -0.001 ± 0.023
L40: Q -0.909 ± 0.08 | V -0.122 ± 0.02 | Y -0.277 ± 0.041 | S -0.701 ± 0.038 | W -0.764 ± 0.047 | T -0.933 ± 0.078 | R -1.01 ± 0.067
H51: I -0.079 ± 0.041 | C -0.034 ± 0.029 | V -0.034 ± 0.022 | M -0.009 ± 0.027 | W -0.058 ± 0.025 | F -0.052 ± 0.044 | T 0.003 ± 0.026 | E 0.005 ± 0.038 | S 0.013 ± 0.02 | L -0.029 ± 0.024 | Y -0.075 ± 0.045 | K -0.012 ± 0.031 | G -0.023 ± 0.02 | P -0.031 ± 0.033 | Q 0.005 ± 0.035 | A -0.022 ± 0.025 | R -0.031 ± 0.018 | D -0.028 ± 0.036
A41: G -0.043 ± 0.023 | E -0.012 ± 0.028 | Y -0.103 ± 0.04 | T -0.028 ± 0.032 | F -0.1 ± 0.034 | M -0.088 ± 0.06 | W -0.111 ± 0.025 | V -0.002 ± 0.023 | L -0.06 ± 0.027 | Q -0.008 ± 0.033 | S -0.04 ± 0.033 | N -0.024 ± 0.091 | K 0.008 ± 0.038 | I 0.003 ± 0.041 | P -0.734 ± 0.062 | H -0.081 ± 0.047 | C 0.012 ± 0.036 | D -0.035 ± 0.03 | R -0.039 ± 0.025
H60: K -0.064 ± 0.03 | D -0.13 ± 0.04 | I -0.045 ± 0.042 | F -0.003 ± 0.045 | A -0.019 ± 0.037 | C -0.004 ± 0.037 | G -0.092 ± 0.044 | L -0.018 ± 0.023 | E -0.077 ± 0.05
A52: D -0.064 ± 0.03 | E -0.024 ± 0.029 | S -0.016 ± 0.027 | L -0.024 ± 0.023 | G -0.086 ± 0.021 | I -0.062 ± 0.052 | C -0.015 ± 0.038 | K -0.023 ± 0.038 | F -0.049 ± 0.047 | V -0.013 ± 0.023 | T -0.037 ± 0.033 | P -0.043 ± 0.031 | N -0.092 ± 0.036 | M -0.101 ± 0.051 | W -0.076 ± 0.055 | H -0.068 ± 0.046 | Y -0.116 ± 0.043
P46: Y -1.12 ± 0.47 | H -0.531 ± 0.05 | V -0.922 ± 0.079 | A -0.406 ± 0.035 | G -0.289 ± 0.023 | W -1.1 ± 0.26 | D -0.283 ± 0.054 | S -0.351 ± 0.029 | K -0.384 ± 0.052 | M -0.928 ± 0.084 | F -0.913 ± 0.099 | I -1.01 ± 0.1 | Q -0.387 ± 0.041 | L -0.976 ± 0.065 | T -0.46 ± 0.033 | N -0.396 ± 0.043 | E -0.155 ± 0.043 | R -0.66 ± 0.031
E47: I -0.045 ± 0.036 | M -0.04 ± 0.05 | Y -0.002 ± 0.037 | C -0.076 ± 0.052 | R -0.054 ± 0.027 | S -0.02 ± 0.021 | Q -0.004 ± 0.037 | H -0.067 ± 0.055 | D 0.012 ± 0.038 | W -0.08 ± 0.024 | T -0.036 ± 0.032 | G 0.041 ± 0.022 | P -0.009 ± 0.028 | L -0.022 ± 0.029 | F -0.127 ± 0.053 | A -0.014 ± 0.025 | N -0.011 ± 0.058
I57: C -0.107 ± 0.035 | V -0.082 ± 0.023 | F -0.203 ± 0.04 | Q -0.611 ± 0.074 | P -1.04 ± 0.095 | E -0.887 ± 0.11 | A -0.369 ± 0.03 | Y -0.918 ± 0.086 | N -0.799 ± 0.082 | K -0.51 ± 0.043 | T -0.323 ± 0.025 | G -0.781 ± 0.034 | L -0.025 ± 0.03 | D -0.962 ± 0.089 | W -0.895 ± 0.1 | H -0.899 ± 0.057 | M -0.105 ± 0.03
L58: N -0.039 ± 0.074 | I 0 ± 0.057 | F -0.034 ± 0.029 | P -0.272 ± 0.028 | C 0.01 ± 0.041 | E -0.015 ± 0.03 | Y 0.026 ± 0.045 | A -0.01 ± 0.022 | K -0.001 ± 0.043 | S -0.007 ± 0.022 | G 0.002 ± 0.027 | T 0.002 ± 0.027 | V -0.006 ± 0.03 | R 0.006 ± 0.024 | M -0.06 ± 0.043
L43: F -0.245 ± 0.031 | G -0.702 ± 0.034 | V -0.134 ± 0.024 | D -0.503 ± 0.042 | N -0.447 ± 0.057 | T -0.396 ± 0.033 | C -0.171 ± 0.044 | R -0.304 ± 0.025 | H -0.296 ± 0.057 | M -0.105 ± 0.045 | S -0.386 ± 0.028 | P -0.564 ± 0.042 | Y -0.526 ± 0.056 | K -0.283 ± 0.03
R50: C -0.052 ± 0.043 | L -0.036 ± 0.022 | K -0.067 ± 0.048 | S -0.102 ± 0.025 | Q -0.067 ± 0.035 | T -0.056 ± 0.028 | H -0.03 ± 0.084 | G -0.274 ± 0.023 | P -0.848 ± 0.072 | A -0.092 ± 0.027 | F -0.149 ± 0.07 | W -0.128 ± 0.027 | M -0.002 ± 0.029 | Y -0.174 ± 0.036 | E -0.159 ± 0.034 | D -0.712 ± 0.074
I45: H -0.925 ± 0.2 | C -0.283 ± 0.037 | W -0.967 ± 0.062 | E -0.676 ± 0.06 | Y -0.821 ± 0.09 | S -1.04 ± 0.057 | G -0.913 ± 0.065 | Q -0.965 ± 0.15 | M -0.143 ± 0.031 | D -0.982 ± 0.093 | P -0.865 ± 0.086 | T -0.588 ± 0.041 | R -1.02 ± 0.067 | F -0.358 ± 0.036 | K -0.72 ± 0.078 | V -0.021 ± 0.023 | A -0.721 ± 0.043 | L -0.034 ± 0.021
W54: N -0.03 ± 0.12 | C -0.363 ± 0.16 | L 0.031 ± 0.067 | G -0.248 ± 0.086 | A -0.065 ± 0.086 | I -0.028 ± 0.14 | H -0.301 ± 0.23 | V -0.078 ± 0.19 | S -0.055 ± 0.097 | R -0.133 ± 0.068 | T -0.102 ± 0.26
I53: K -0.25 ± 0.13 | M -0.403 ± 0.046 | F -0.921 ± 0.089 | G -0.979 ± 0.055 | D -0.907 ± 0.14 | S -0.918 ± 0.057 | C -0.528 ± 0.024 | T -0.787 ± 0.064 | Q -0.99 ± 0.14 | L -0.117 ± 0.025 | P -1.07 ± 0.12 | R -0.945 ± 0.079 | W -0.62 ± 0.081 | H -0.887 ± 0.071 | N -0.783 ± 0.1 | E -0.893 ± 0.063 | Y -0.821 ± 0.089
